Substitutions are numbered along the chain they refer to. Read-outs that look alike come from different tables or passages of the source.
What was measured:
Assay in all cases: EMSA
A32CTD (Aca13) [1] = molecular target: T1, A32CTD (Aca13) (Streptococcus uberis NZ01)
T1 chain: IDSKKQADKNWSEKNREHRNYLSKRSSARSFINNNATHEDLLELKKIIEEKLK

[2] = molecular target: T2, AcrIIA32 (Acr-Aca13 fusion) (Streptococcus uberis NZ01)
T2 chain: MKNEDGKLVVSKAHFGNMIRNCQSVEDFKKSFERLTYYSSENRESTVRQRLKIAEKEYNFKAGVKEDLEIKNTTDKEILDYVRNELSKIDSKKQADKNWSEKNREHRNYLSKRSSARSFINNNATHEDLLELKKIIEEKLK

A35-n-Aca13 = molecular target: T3, A35-n-Aca13
T3 chain: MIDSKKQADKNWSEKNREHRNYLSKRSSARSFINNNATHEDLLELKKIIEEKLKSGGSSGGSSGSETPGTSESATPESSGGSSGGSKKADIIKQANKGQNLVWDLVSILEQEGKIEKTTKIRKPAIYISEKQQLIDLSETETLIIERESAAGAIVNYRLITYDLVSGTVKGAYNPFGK

A35-c-Aca13 = molecular target: T4, A35-c-Aca13
T4 chain: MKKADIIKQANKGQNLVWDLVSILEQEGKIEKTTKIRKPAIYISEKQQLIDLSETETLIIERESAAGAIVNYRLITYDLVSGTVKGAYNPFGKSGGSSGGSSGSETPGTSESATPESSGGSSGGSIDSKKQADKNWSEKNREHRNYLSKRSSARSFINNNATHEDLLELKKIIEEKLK

A32CTD (Aca13) [3] = molecular target: T1, A32CTD (Aca13)
[4] = molecular target: T2, AcrIIA32 (Acr-Aca13 fusion)
Aca11 [5] = molecular target: T5, Aca11 (Streptococcus sp. F0441)
T5 chain: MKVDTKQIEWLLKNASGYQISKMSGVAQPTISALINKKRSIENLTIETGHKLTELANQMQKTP

Aca11 [6] = molecular target: T5, Aca11

B1: Aca13-s1 scIR2 probe (dsDNA)
DNA 1: AGTTGATAAAAAGTGTTGACTTTTTAACGTACAGAGCTGTGCATATAATCATAAAGAT
DNA 2: ATCTTTATGATTATATGCACAGCTCTGTACGTTAAAAAGTCAACACTTTTTATCAACT
A32CTD (Aca13) [1]
  binding result: no binding
[2]
  binding result: no binding

B2: Aca13-s1 WT probe (Aca13 probe) (dsDNA)
DNA 1: AGTTGATAAAAAGTGTTGACTTTTTAACGTACATGTACTATAATATAATCATAAAGAT
DNA 2: ATCTTTATGATTATATTATAGTACATGTACGTTAAAAAGTCAACACTTTTTATCAACT
A35-n-Aca13
  binding result: binds
A35-c-Aca13
  binding result: binds
A32CTD (Aca13) [3]
  binding result: binds
[4]
  binding result: binds

B3: Aca13-s1 scIR1 probe (dsDNA)
DNA 1: B2 DNA 1 with A8C, A9C, A10C, A11C, A12C, G13T, T14A
DNA 2: B2 DNA 2 with A45T, C46A, T47G, T48G, T49G, T50G, T51G
A32CTD (Aca13) [3]
  binding result: binds
[4]
  binding result: binds

B4: Aca11-s1 scIR probe (dsDNA)
DNA 1: GTGTTGACAGGCGCGCCTCAATGTTATATACTATACTTGTAAGATAAATAAAACAA
DNA 2: TTGTTTTATTTATCTTACAAGTATAGTATATAACATTGAGGCGCGCCTGTCAACAC
Aca11 [5]
  binding result: no binding

B5: Aca11-s1 IR WT probe (dsDNA)
DNA 1: GTGTTGACAGTATATAACAAATGTTATATACTATACTTGTAAGATAAATAAAACAA
DNA 2: TTGTTTTATTTATCTTACAAGTATAGTATATAACATTTGTTATATACTGTCAACAC
Aca11 [6]
  binding result: binds

Reference: paper PMC12282945
